Measured values as given in US10442866 (BEIJING MABWORKS BIOTECH, dated 2019).
Like-named read-outs stand apart in the source and are kept apart here.

T1: murine OX40-His (Crown, Cat#: E3350-B1707) (mouse, UniProt P47741 20-211)
T1 construct: bought protein; also called mouse OX40-his; muOX40-his; not shown: His tag
T1 sequence: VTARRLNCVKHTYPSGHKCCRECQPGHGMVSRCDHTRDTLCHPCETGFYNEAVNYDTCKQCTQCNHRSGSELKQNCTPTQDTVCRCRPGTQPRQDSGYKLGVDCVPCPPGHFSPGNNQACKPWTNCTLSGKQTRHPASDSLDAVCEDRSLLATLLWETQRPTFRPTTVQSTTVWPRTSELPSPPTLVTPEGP

T2: recombinant rhesus OX40-his (Sino Biological, Cat#:90846-C08H) (rhesus monkey, UniProt P43489 29-214 (human entry))
T2 construct: bought protein; also called monkey OX40-his; rhOX40-his; not shown: His tag
T2 chain: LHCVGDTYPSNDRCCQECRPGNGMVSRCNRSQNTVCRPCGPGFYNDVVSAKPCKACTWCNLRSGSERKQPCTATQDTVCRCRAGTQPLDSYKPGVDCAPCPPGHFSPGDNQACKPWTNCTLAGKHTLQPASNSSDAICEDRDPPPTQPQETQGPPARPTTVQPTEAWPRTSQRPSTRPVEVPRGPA

T3: rhesus OX40 expressed on HEK293A cells (rhesus, UniProt P43489 29-277 (human entry))
T3 construct: also called HEK293A/rhOX40; HEK293A/rhesusOX40 cells
T3 chain: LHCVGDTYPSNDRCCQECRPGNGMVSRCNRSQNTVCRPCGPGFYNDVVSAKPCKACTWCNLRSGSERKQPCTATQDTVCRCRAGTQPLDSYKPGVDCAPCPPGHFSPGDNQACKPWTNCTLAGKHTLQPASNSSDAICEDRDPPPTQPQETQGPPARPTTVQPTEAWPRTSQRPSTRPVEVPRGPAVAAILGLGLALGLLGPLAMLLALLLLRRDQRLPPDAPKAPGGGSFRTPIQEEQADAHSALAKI

T4: recombinant human OX40-his (Sino Biological, Cat#:10481-H03H) (human, UniProt P43489 29-214)
T4 construct: bought protein; also called hOX40-his; not shown: His tag
T4 sequence: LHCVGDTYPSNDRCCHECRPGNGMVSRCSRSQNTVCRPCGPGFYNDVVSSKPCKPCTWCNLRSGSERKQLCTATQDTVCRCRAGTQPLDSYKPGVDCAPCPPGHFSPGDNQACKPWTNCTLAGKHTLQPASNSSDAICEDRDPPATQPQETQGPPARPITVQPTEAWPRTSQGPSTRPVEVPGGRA

T5: human OX40 expressed on HEK293A cells (human, UniProt P43489 29-277)
T5 construct: also called HEK293A/huOX40; HEK293A/human OX40 cells
T5 sequence: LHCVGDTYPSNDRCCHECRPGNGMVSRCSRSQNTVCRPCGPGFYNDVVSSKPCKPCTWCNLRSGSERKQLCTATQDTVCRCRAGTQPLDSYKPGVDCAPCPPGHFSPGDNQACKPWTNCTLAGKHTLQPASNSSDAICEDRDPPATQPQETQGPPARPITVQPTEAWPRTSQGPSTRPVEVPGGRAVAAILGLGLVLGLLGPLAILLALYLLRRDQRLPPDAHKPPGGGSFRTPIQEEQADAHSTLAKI

B1: 68C8-VH2VL2 (antibody, human IgG1, kappa, V domains shown)
VH: QVQLVQSGAEVKKPGASVKVSCKVSGDTFTSYWITWVRQRPGKGLEWMGDIHPGSGSTNNNEKFKNRVTMTVDTSTDTAYMELSSLRSEDTAVYYCATLRPYYFVYWGQGTLVTVSS
VL: DIQMTQSPSSLSASVGDRVTITCRASQDISNYLNWYQQKPGKTPKLLIYYTSRLLSGVPSRFSGSGSGTDYTLTISSLQPEDFATYYCQQGNTLPLTFGQGTRLEIKR
notes: humanized; also called 68C8-H2L2
B2: 71H8-VH3VL3 (antibody, human IgG1, kappa, V domains shown)
VH: QVQLVQSGAEVKKPGASVKVSCKVSGYTFTSYWITWVRQRPGQGLEWIGDIYPGSGSTNQNEKFKSRVTLTVDTSTDTAYMELSSLRSEDTAVYYCATLRPYYFVYWGQGTLVTVSS
VL: DIQMTQSPSSLSASVGDRVTITCRASQDISNYLNWYQQKPGKTVKLLIYYTSRLLSGVPSRFSGSGSGTDYTLTISSLQPEDFATYFCQQGNTLPLTFGQGTRLEIKR
notes: humanized; also called 71H8-H3L3
B3: 71H8-VH2VL2 (antibody, human IgG1, kappa, V domains shown)
VH: QVQLVQSGAEVKKPGASVKVSCKVSGYTFTSYWITWVRQRPGKGLEWMGDIYPGSGSTNQNEKFKSRVTMTVDTSTDTAYMELSSLRSEDTAVYYCATLRPYYFVYWGQGTLVTVSS
VL: DIQMTQSPSSLSASVGDRVTITCRASQDISNYLNWYQQKPGKTPKLLIYYTSRLLSGVPSRFSGSGSGTDYTLTISSLQPEDFATYYCQQGNTLPLTFGQGTRLEIKR
notes: humanized; also called 71H8-H2L2
B4: 68C8-VH3VL2 (antibody, human IgG1, kappa, V domains shown)
VH: QVQLVQSGAEVKKPGASVKVSCKVSGDTFTSYWITWVRQRPGQGLEWIGDIHPGSGSTNNNEKFKNRVTLTVDTSTDTAYMELSSLRSEDTAVYYCATLRPYYFVYWGQGTLVTVSS
VL: DIQMTQSPSSLSASVGDRVTITCRASQDISNYLNWYQQKPGKTPKLLIYYTSRLLSGVPSRFSGSGSGTDYTLTISSLQPEDFATYYCQQGNTLPLTFGQGTRLEIKR
notes: humanized; also called 68C8-H3L2
B5: 68C8-VH3VL3 (antibody, human IgG1, kappa, V domains shown)
VH: QVQLVQSGAEVKKPGASVKVSCKVSGDTFTSYWITWVRQRPGQGLEWIGDIHPGSGSTNNNEKFKNRVTLTVDTSTDTAYMELSSLRSEDTAVYYCATLRPYYFVYWGQGTLVTVSS
VL: DIQMTQSPSSLSASVGDRVTITCRASQDISNYLNWYQQKPGKTVKLLIYYTSRLLSGVPSRFSGSGSGTDYTLTISSLQPEDFATYFCQQGNTLPLTFGQGTRLEIKR
notes: humanized; also called 68C8-H3L3
B6: 71H8-VH0VL0 (antibody, human IgG1, kappa, V domains shown)
VH: QVQLVQSGAEVKKPGASVKVSCKVSGDTFTSYWITWVRQAPGKGLEWMGDIYPGSGSTNQNEKFKSRVTMTEDTSTDTAYMELSSLRSEDTAVYYCATLRPYYFVYWGQGTLVTVSS
VL: DIQMTQSPSSLSASVGDRVTITCRASQDISNYLNWYQQKPGKAPKLLIYYTSRLLSGVPSRFSGSGSGTDFTLTISSLQPEDFATYYCQQGNTLPLTFGQGTRLEIKR
notes: humanized; also called 71H8-H0L0
B7: 68C8-VH0VL0 (antibody, human IgG1, kappa, V domains shown)
VH: QVQLVQSGAEVKKPGASVKVSCKVSGDTFTSYWITWVRQAPGKGLEWMGDIHPGSGSTNNNEKFKNRVTMTEDTSTDTAYMELSSLRSEDTAVYYCATLRPYYFVYWGQGTLVTVSS
VL: DIQMTQSPSSLSASVGDRVTITCRASQDISNYLNWYQQKPGKAPKLLIYYTSRLLSGVPSRFSGSGSGTDFTLTISSLQPEDFATYYCQQGNTLPLTFGQGTRLEIKR
notes: humanized; also called 68C8-H0L0
B8: chimeric antibody 68C8 (antibody, human IgG1, kappa, V domains shown)
VH: QVQLQQSGAELVKPGASVKMSCKASGDTFTSYWITWVKQRPGQGLEWIGDIHPGSGSTNNNEKFKNKATLTVDTSSSTAYMQLSSLTSEDSAVYYCAKLRPYYFVYWGQGTTLTVSS
VL: DIQMTQTTSSLSASLGDRVTISCRASQDISNYLNWYQQKPDGTVKLLIYYTSRLLSGVPSRFSGSGSGTDYSLTISNLEQEDIATYFCQQGNTLPLTFGAGTRLELKR
notes: mouse variable regions with human IgG1/kappa constant regions
B9: chimeric antibody 6A12 (antibody, human IgG1, kappa, V domains shown)
VH: QVQLQQSGPELVKPGASVKISCKASGYAFSSSWMNWVKQRPGKGLEWIGRIYPGDGITNYNGNFKGKATLTADKSSSTAYMQLSGLTSADSAVYFCAREFIPLGWGTGTTVTVSS
VL: DIVMTQTPFSNPVTLGTSASISCRSSKSLLHSNGITYLYWYLQKPGQSPQLLIYQMSNLASGVPDRFSSSGSGTDFTLRISRVEAEDVGVYYCAQNLELPWTFGGGTKLEIKR
notes: as for B8

How the values were obtained:
[1] = target: T1, murine OX40-His (Crown, Cat#: …); assay: ELISA on coated mouse OX40-His, OD450
[2] = target: T2, recombinant rhesus OX40-his (Sino …); assay: ELISA on coated rhesus OX40-His, OD450
[3] = target: T3, rhesus OX40 expressed on HEK293A cells; assay: FACS on HEK293A/rhesus OX40 cells, MFI (panel without title; monkey OX40 by the legend)
Method: Briefly, 10^5 HEK293A cells were seeded into each well of the 96-well plates and serially diluted anti-OX40 antibodies were added to the plates. After incubated at 4° C. for 1 hour, plates were washed 3 times with PBST. Then, an APC coupled Goat Anti-Mouse IgG (BioLegen, US, Cat#: 405308) diluted 500× was added to the plates. After incubation at 4° C. for 1 hour, the plates were washed with PBS for 3 times and then cell fluorescence was monitored using a FACS machine (BD).
Example 15 Humanized Anti-OX40 Antibodies Bound to Human or Rhesus OX40 Expressed on HEK293A Cells The humanized anti-OX40 antibodies were also tested for their ability of binding to HEK293A/huOX40 cells or HEK293A/rhOX40 cells, following the FACS analysis protocol as described in Example 5.

[4] = target: T4, recombinant human OX40-his (Sino …); assay: SPR Biacore 8K, OX40-His on chip, antibody injected
Method: SPR assays were used to determine the binding affinity of the chimetic or humanized anti-OX40 antibodies to human OX40 with the BIAcore™ 8K instrument (GE Life Sciences). Briefly, 100-200 response units (RU) of human OX40-His protein (Sino Biological, CN, Cat#:10481-H03H, Lot no.: MA08MA3003) were coupled to CM5 biosensor chips (Cat#: BR-1005-30, GE Life Sciences), followed by blocking of un-reacted groups with 1M ethanolamine. Serially diluted antibodies at concentrations ranging from 0.3 µM to 10 µM were injected into the SPR running buffer (HBS-EP buffer, pH7.4, GE Life Sciences; US; Cat#:BR-1006-69) at 30 µL/minute. The binding capacitity was calculated with the RUs of blank controls subtracted. The association rate (k_a) and dissociation rate (k_d) were calculated using the one-to-one Langmuir binding model (BIA Evaluation Software, GE Life Sciences). The equilibrium dissociation constant K_D was calculated as the k_d/k_a ratio.

[5] = target: T4, recombinant human OX40-his (Sino …); assay: ELISA on coated human OX40-His, OD450
[6] = target: T2, recombinant rhesus OX40-his (Sino …); assay: ELISA on coated rhesus OX40-His, OD450
[7] = target: T1, murine OX40-His (Crown, Cat#: …); assay: ELISA on coated mouse OX40-His, OD450; remark: listed apart in the source
[8] = target: T5, human OX40 expressed on HEK293A cells; assay: FACS on HEK293A/huOX40 cells
[9] = target: T3, rhesus OX40 expressed on HEK293A cells; assay: FACS on HEK293A/rhOX40 cells

Row | Binder | binding result [1] | binding result [2] | binding result [3] | Kd [4] [nM] | koff [4] [s⁻¹] | kon [4] [M⁻¹ s⁻¹] | EC50 (read off the curve) [5] [ng/mL] | EC50 (read off the curve) [6] [ng/mL] | binding result [7] | EC50 [8] [ng/mL] | EC50 [9] [ng/mL]
1 | B1 | no binding (tested: 10000 ng/ml (log 4)) | binds | binds | 5.07 | 0.00105 | 207000 | – | – | – | – | –
2 | B2 | – | – | binds | 6.36 | 0.00207 | 325000 | ~3 | ~3 | no binding (tested: 10000 ng/ml (log 4)) | – | –
3 | B3 | – | – | binds | 4.81 | 0.00172 | 358000 | ~3 | ~3 | no binding (tested: 10000 ng/ml (log 4)) | – | –
4 | B4 | no binding (tested: 10000 ng/ml (log 4)) | binds | binds | 9.55 | 0.00157 | 165000 | – | – | – | – | –
5 | B5 | no binding (tested: 10000 ng/ml (log 4)) | binds | binds | 4.04 | 0.000821 | 203000 | – | – | – | – | –
6 | B6 | – | – | binds | 9.21 | 0.00274 | 297000 | ~3 | ~3 | no binding (tested: 10000 ng/ml (log 4)) | – | –
7 | B7 | no binding (tested: 10000 ng/ml (log 4)) | binds | binds | 4.49 | 0.00184 | 410000 | – | – | – | – | –
8 | B8 | no binding (tested: 10000 ng/ml (log 4)) | – | – | 0.187 | 7.35e-05 | 393000 | – | – | – | 134 | 80.7
9 | B9 | – | – | – | – | – | – | – | – | – | 177 | 883
